Assay results reported in the nanobody polyreactivity screen of Harvey et al. (2022).

Test: yeast display, Sf9 membrane polyspecificity reagent, FACS + sequencing; frameworks hold sequencing errors
Summary of the method: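 A nanobody's polyreactivity label depends on the gate it was sorted from. Yeast display cells were stained with 10% biotinylated, detergent-solubilized Sf9 membrane reagent for 1 hour at 4 °C, enriched on streptavidin microbeads and sorted by FACS. The low and high (top ~1%) gates were set on anti-HA fluorescence for expression and streptavidin fluorescence for reagent binding.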

Sequence	polyreactivity (PSR sort gate)
QVQLVESGGGLVQAGGSLRLSCAASGSTLRRYAMGWYRQAPGKERELVAAISGTGSRTYYADSVNGRFTISRDNAKNTDYLQMNSLKPEDTAVYYCNASQYRLTENDYWGQGTQVNVSS	high polyreactivity
QVQLVESGGGLVQAGGSLRLSCAASGRTFYYYAMGWYRQAPGKERELVAAISRGGGSTYYADSVKGRFTISRDNAKNTVYLQMNSLKPEDTAVYSWNKVYSTSSYDYWGQGTQVTVSS	high polyreactivity
QVQLVESGGGLVQAGGSLRLSCAASGYTYGNYAMGWYRQAPGKERELVAAITSRGGRTYYADSVKGRFTISRDNAKNTVYLQMNSLKPEDTAVYYCAARGRYKDGYRMDYWGQGTQVTVSS	high polyreactivity
QVQLVESGGGLVQAGGTLRLSCAASGFTFNYYAMGWYRQAPGKERELFAAISSRGTGTYYADSVKGRFTISRDNAKNTVYFQMNSLKPEDTAVYYCAADWFTWSWQETRYGYWGQGTQVTVSS	high polyreactivity
QVQLVESGGGLVQAGGSLRLSCAASGRTFYIYAMGWYRQAPGKERELVASINWSTGRTYYADSVKGRFTISRDNAKNTVYLQMNSLKPEDTAVYYCATDGDYYYISQGRRGYRYNYWGQGTQVTVSS	high polyreactivity
QVQLVESGGGLVQAGGSLRLSCAASGRIFGINAMGWYRQAPGKERALVAAISRSGSRTYYADSVKGRFTISRDNAKNTVYLQMNSLKPEDTAVYYCAAQKRVYDSVRSTDRYDYWGQGTQVTVSS	high polyreactivity
QVQLVESGGVLVQAGASLRLSCAASGITFVTYAMGWYRQAPGKERELVADISSSGGSSYYADSVKGRFTISLDNAKNTVYLQMNSLKPEDTAVYYWAALATFYPEFDYWGQGTQVTVSS	low polyreactivity
QVQLVESGGGLVQAGGSLRLSCAASGSTSRGNAMGWYRQAPGKERELVAAISYIGGTTYYADSVKGRFTISRDNAKNTVYLQMNSLKPEDTAVYYCAADLYRSILKPDYDYWGQGTQVTVSS	high polyreactivity
QVQHVESGGGLVQAGGSLRLSCAASGSIFPHYAMGWYRQAPGKERELVAAISYSGGRTYYADSVKGRFTISRDNAKNTVYLQMNSLKPEDTAVYYCAKPERVLYHGDYWGQGTQVTVSS	low polyreactivity
QVQLVESGGGLVQAGGSLRLSCAASGFNFSYNAMGWYRQAPGKERELTYADSVKGRFTISRDNAKNTVYLQMNSLKLEDTAVYYCAAGEYGRQYDGDYWGQGTQVTVSS	low polyreactivity
QVQLVESGGGLVQAGGSLRLSCAASGRTFGGNAMGWYRQAPGKERELVAAITWRGGSTYYADSVKGRFTISRDNAKNTVYLQMNSLKPEDTAVYYCNAVRTGKYVKYYRSIFDYWGQGTQVTVSS	high polyreactivity
QVQLVESGGGLVQAGGSLRLSCAASGSTFRVYAMGCYRQAPGKERELVAAISGSGGSTYYADSVKGRFTISRDNAKNTVYLQMNSLKPEDTAVYYCAARSWYTEYYWGQGTQVTVSS	high polyreactivity
QVQLVESGGGLVQAGGSLRLRWAASGRIFHHYAMGWYRPAPGKERELVAAISSGGSTYYADSVKGRFTISRDNAKNTVYLQMNSLKPEVTAVYYCAAYWYSPEYDYWGQGTQVTLSS	high polyreactivity
QVQLVESGGGLLQAGGSLRLSCAASGFIFRRYTLGWYRQAPGKERELVAAITSSGARTYYADSVKGRFTISRDNAKNTVYLQMTSLKPEDTAVYYCYTSYRKKKRYYYWGQGTQVTVSS	high polyreactivity
QVQLVESGGGLVQAGGSLRLSCAASGRTFLRNAMGWYRQAPGKERELVAAITSSGGRTYYADSVKGRFTISRDNAKNTVYLQMNSLKPEDTAVYYCATDTGWPGRDYWGQGTQVTVSS	high polyreactivity
QVQLVESGGGLVQAGGSLRLSCAASGFTFTYYDMGWYRQAPGKERELDAAISWSGDYTYYADSVKGRFTISRDNAKNTVYLQMNSLKPEDTAVYYCAALWDVRGYWSSGGYYWGQGTQVTVSS	high polyreactivity

Sequence	polyreactivity (PSR sort gate)
QVQLVESGGGLVQAGGSLRLSCAASGSIFRGKAMGWYRQAPGKERELVAAITRSGGRTYYADSVKGRFTISRDNAKNTVYLQMNSLKPDDTAVYYCAAEYYTGLGYWGQGTQVTVSS	high polyreactivity
QGQRVESGGGLVQAGGSLRLSCAASGSIFHGYAMGWDRQAPGKERELVADITSGGGTYYADSVKGRFTISRDNAKTTVYLQMNSLKPEDTAVYYCATQKSRRYGYWVQGTQVTVSS	low polyreactivity
QVQLVESGGGLVQAGGSLRLRCAASGRTFGEYTMGWYRQAPGKERELVAAISSAGRTNYADSVKGRFTISRDNAKNTVYLQMNSLKPEDSGVYYCAADWTDDVRGYDYWGQGTQVTVSS	low polyreactivity
QVQLVESGGGLVQAGGSLRLSCAASGFTFKSYTMAWYRHAPGKERELVANISRRGGSTYYADSVKGRFTLSRDNAKNTVYLQMNSLKPEDTAVYYCAADAYGFLDTTYRYFYWGQGSQVTVSS	high polyreactivity
QVQLVESGGGLVQAGGSLRLSCAASGSIFTYNTMGWYRPAPGKERELVAAISSGGRTYYADSVKGRFTISRDNAKNTVYLQMTSLKPEDTAVYYCAARYYFWGQGTQVTVSS	high polyreactivity
QVQLVESGGPLVKSRGSLRLICAASGRTYCEYSMGWYRQAPGKERELVADITNGSRTYYADSVKGRFTISRDNAKNTVYLQMNSLKPEDTSVYYCAADWWKEVDYWGQGTEVTVSS	low polyreactivity
QVQLVESGGGLVQAGGSLRLSCAASGIFSYYAMGWYRQAPGKERELVATISRRGSSTYYADSVKGRFTISRDNAKNTVYLQMNSLKPEDTAVYYCNADIGWGRFSQSFDYWGQGTQVTVSS	low polyreactivity
QVQLVESGGGLVQAGGSLRLSCAASGRIFTSYAMGWYRQAPGKERELVAAINRGGSTYYADSVKGRFTISRDNAKNTVYLQMNSLKPEDTAVYYCNATPPYNPEFDYWGQGTQVTVSS	low polyreactivity
QVQLVESGGGLVQAGGSLRLSCAASGSTFYYYAMGWYRQAPGKERELVATISSGSSTNYADSVKGRFTISRDNAKNTVYLQMNSLIPEDTAVYYCAADRWYINLYIDATISYDYWGQGTQVTVSS	low polyreactivity
QVQLVESGGGLVQAGGSLRLSCAASGLTFPTNAMGRYRQAHGKESQFVAAITSRGGTTYYADSVTGRFPISRDNAKNTVYLQMNSLKPEDTAVYYCAALSVTIDQSYRYGYWGQGTQVTVSS	low polyreactivity
QVQLVESGGGLVQAGGSLRLSCAASGRTFPYYAMGWYRQAPGKEMELVAAISSSGGRTYYADSVKGRFTISRDNAKNTVYLQMNSLKPEDTAVYYCNAESTYYPSGEDYWGQGTQVTVSS	low polyreactivity
QVQLVESGGGLVQAGGSLRLSCASSGFTFYIYVMGWYRQAPGKEREWVAAISSRGGSTYYADSVKGRFTISRDNAKNTVNSQMNSLKPEDTAVYYCNAVHYVLYGDYDYWGQGTQVTVSS	high polyreactivity
EDQLGESGGGLVQAGGSLRLSCAASGRTFYSYARGWSRQAPVKERELVAGINGGGSTYYADSVKGRFTISRDNAKNTVYLQMNSLKPEDSPVYYCAARRYDIRYYYVTYRPPKMYYWGQGTQVTVSS	high polyreactivity
QVQLVESGGRLVQAGGSLRLSCAASGRTFGYNTMGWYRPAPGKEREVVARITWSGASTYYADSVKGRFTISRDNAKNTVYLQMNSLKPEDTAVYYCNTADTVSWRSPYDYWGQGTQVTVSS	high polyreactivity
QVQLVESGGGLVQAGGSLRLSCAASGSTFRYYAMGWYRKAPGKERELVAAITSSGGSTYYADSVKGRFTISRDNAKNTVYLQMNSLKPEDTAVYYCAVAVKNWVKLNYWGQGTQVTVSS	high polyreactivity
QVQLVESGGGLVQAGGSLRLSCAASGLTFWANTMGWYRQAPGKERELVAAITWSGGSTYYADSVKGRFTISRDNAKNTFYLQMNSLKPEDNAVYYCAAEEFFSAGYSYYYWGQGTQVTVSS	low polyreactivity
